According to US20090123479A1 (published 2009):

T1: recombinant human IL-23 (human, UniProt Q9NPF7 20-189; P29460 23-328)
T1 construct: also called hIL-23
T1 sequence 1: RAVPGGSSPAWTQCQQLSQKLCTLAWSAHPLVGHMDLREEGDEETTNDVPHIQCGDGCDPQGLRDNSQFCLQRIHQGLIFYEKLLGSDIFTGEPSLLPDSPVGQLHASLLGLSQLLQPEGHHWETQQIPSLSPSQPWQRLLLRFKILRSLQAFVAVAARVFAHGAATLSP
T1 sequence 2: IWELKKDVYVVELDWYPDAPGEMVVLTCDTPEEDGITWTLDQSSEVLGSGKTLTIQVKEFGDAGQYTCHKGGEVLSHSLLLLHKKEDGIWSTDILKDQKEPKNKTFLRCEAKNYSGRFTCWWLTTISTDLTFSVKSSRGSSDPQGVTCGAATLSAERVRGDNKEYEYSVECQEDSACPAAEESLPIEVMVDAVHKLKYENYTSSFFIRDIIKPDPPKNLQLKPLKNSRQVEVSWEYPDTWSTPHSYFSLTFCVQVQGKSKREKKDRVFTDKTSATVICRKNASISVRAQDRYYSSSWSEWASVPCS


Columns and labels:
recombinant human IL-23 [1] = target: T1, recombinant human IL-23; test: SPR (Biacore 3000), purified antibody captured on Protein A or anti-human IgG, IL-23 analyte at 256, 64, 16, 4 nM
Experimental: (§1) Protein A or an anti-human IgG (Biacore BR-1008-39) was immobilised on a Biacore CM5 chip by primary amine coupling in accordance with the manufacturer's instructions. Anti IL-23 antibodies were captured on this surface and after a period of stabilisation, […] was passed over the antibody captured surface and a binding sensorgram was obtained. […] All runs were double referenced with a buffer injection over the captured antibody surface. Data was analysed using the 1:1 model using the software inherent to the Biacore 3000 or T100 depending upon which machine was used to generate kinetics. Analysis was carried out at 25° C. using HBS-EP buffer. Data presented in Tables 3-6 are on tissue culture supernatants of CHO cells transiently expressing the antibody of interest unless otherwise indicated. Data was generated using concentrations of IL-23 (256, 64, 16, 4, 1 and 0.25 nM) The data shown for the humanized variants is representative of a number of runs, The chimeric mAb (8C9H6.HC1LC1) was only run once in each experiment, so data shown for this mAb is from that one run, […]

recombinant human IL-23 [2] = target: T1, recombinant human IL-23; test: sandwich ELISA (optimised protocol, OD450): plate coated with anti-human IL-12, antibody pre-incubated with constant human IL-23, bound antibody detected with anti-human IgG gamma chain HRP; purified antibody
Experimental: Optimised assay conditions: Plates were coated with anti human IL12 at 2 μg/diluent (phosphate buffered saline). 50 μl/well of this mixture was incubated overnight at 4° C. The plates were then washed three times with Phosphate Buffered Saline with 0.05% Tween 20 (PBST). Plates were blocked with 4% skim milk powder (Fluka BioChemika #70166) PBS 200 μl/well for a minimum of 1 hour at room temperature. The plates were then washed three times with Phosphate Buffered Saline+0.05% Tween 20 (PBST). Various concentrations of antibody were incubated in a separate plate with a constant concentration of IL-23 for 1 hour at room temperature. 50 ul of each mixture were transferred to the assay plate and incubated at RT for 1 hr. They were then washed three times with Phosphate Buffered Saline+0.05% Tween 20 (PBST). […] 50 μl/well of the detection antibody was added and incubated at RT for 1 hour. The plates were then washed three times with Phosphate Buffered Saline+0.05% Tween 20 (PBST). 50 μl/well of TMB was added to the plates and incubated at RT for 10 min. 50 μl/well of 1 MH₂SO₄ was added. The plate was read at OD450 nm using the SOftmaxPRO versamax plate reader.

recombinant human IL-23 [3] = target: T1, recombinant human IL-23; test: SPR (Biacore T100), transient material captured on Protein A or anti-human IgG, IL-23 analyte at 256, 64, 16, 4, 1 nM
Experimental: as §1

recombinant human IL-23 [4] = target: T1, recombinant human IL-23; test: SPR (Biacore T100), purified antibody captured on anti-human IgG, IL-23 analyte, 1:1 model
Experimental: Biacore analysis was carried out using a capture surface on a CM5 chip. Anti-human IgG (BR-1008-39) was used as the capturing agent. Anti-human IgG was coupled to a CM5 biosensor chip by primary amine coupling. Humanized antibody was captured on this immobilised surface and defined concentrations of IL-23 were passed over this captured surface. An injection of buffer over the captured antibody surface was used for double-referencing. […] T100 Biacore machine was used to generate the data; all runs were carried out at 25° C. using HBS EP. Data was analysed using the software inherent to the machine and fitted to the 1:1 model of binding. Tables 7 and 8 detail the IL-23 binding analysis carried out on the 8C92H6.HC1LC1 chimera and selected humanized variants in two separate experiments. Data presented in Tables 7 and 8 are from purified antibody samples. The data shown for the humanized variants is representative of a number of runs. The chimeric mAb (8C9H6.HC1LC1) was only run once in each experiment, so data shown for this mAb is from that one run.

Kd (recombinant human IL-23 [1]) [pM]	koff (recombinant human IL-23 [1]) [s⁻¹]	kon (recombinant human IL-23 [1]) [M⁻¹ s⁻¹]	EC50 (read off the curve) (recombinant human IL-23 [2]) [pM]	Kd (recombinant human IL-23 [3]) [pM]	koff (recombinant human IL-23 [3]) [s⁻¹]	kon (recombinant human IL-23 [3]) [M⁻¹ s⁻¹]	Kd (recombinant human IL-23 [4]) [pM]	koff (recombinant human IL-23 [4]) [s⁻¹]	kon (recombinant human IL-23 [4]) [M⁻¹ s⁻¹]	Binder
1800	0.00044	240000	~60	1800	0.00038	210000	–	–	–	chimeric 8C92H6 HC1LC1 (antibody, V domains shown, Murine variable regions with human constant regions; also called 8C92H6.HC1LC1 Chimera; 8C9 chimera) VH: QVQLQQSGAELARPGTSVKLSCKASGYTFTSYGITWVKQRTGQGLEWIGENYPRSGNTYYNEKFKGKATLTADKSSSTAYMELRSLTSEDSAVYFCARCEFISTVVAPYYYALDYWGQGTSLVTVS VL: DIVLTQSPASLAVSLGQKATISCKASKKVTIFGSISALHWYQQKPGQPPKLIYNGAKLESGVSARFSDSGSQNRSPFGNQLSFTLTIDPVEADDAATYYCLQNKEVPYTFGGGTKLEIKR
–	–	–	–	–	–	–	194	0.000237	1.22e+06	A3M0 (antibody, human IgG1, kappa, V domains shown, Full length chains; also called humanized mAb A3M0) VH: QVQLVQSGAEVKKPGSSVKVSCKASGYTFTSYGITWVRQAPGQGLEWMGENYPRSGNTYYNEKFKGRVTITADKSTSTAYMELSSLRSEDTAVYYCARSEFISTVVAPYYYALDYWGQGTLVTVSS VL: DIVMTQSPDSLAVSLGERATINCKASKKVTIFGSISALHWYQQKPGQPPKLIYNGAKLESGVPDRFSGSGSGTDFTLTISSLQAEDVAVYYCLQNKEVPYTFGGGTKVEIKR
